This data set addresses T1, LSF (TFCP2) (Homo sapiens, UniProt Q12800 SEQ:1-502).
T1 sequence: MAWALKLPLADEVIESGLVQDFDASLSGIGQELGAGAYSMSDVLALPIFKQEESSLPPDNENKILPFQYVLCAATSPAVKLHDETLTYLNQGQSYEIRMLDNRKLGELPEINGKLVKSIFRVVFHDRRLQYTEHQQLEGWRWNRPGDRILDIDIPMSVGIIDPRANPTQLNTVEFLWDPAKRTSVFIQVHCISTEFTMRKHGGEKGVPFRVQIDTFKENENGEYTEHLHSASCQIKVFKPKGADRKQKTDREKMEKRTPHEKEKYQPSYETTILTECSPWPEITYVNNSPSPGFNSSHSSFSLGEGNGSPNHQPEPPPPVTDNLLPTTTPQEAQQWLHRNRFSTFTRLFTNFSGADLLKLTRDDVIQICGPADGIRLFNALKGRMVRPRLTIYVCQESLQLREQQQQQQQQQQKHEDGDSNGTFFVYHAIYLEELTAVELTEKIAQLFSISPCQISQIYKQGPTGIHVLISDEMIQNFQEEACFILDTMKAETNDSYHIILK
Briefly: EMSA; 40 mM KCl, 15 mM HEPES pH 7.9, 1 mM EDTA, 0.5 mM DTT, 5% glycerol, poly d(I-C), 30 C; FQI1 enhances binding at low and inhibits at higher concentration. As to conditions: chain copies: 4 stated (tetrameric on DNA); label: 32P (radiolabelled). The procedure:
LSF was translated in vitro as previously described¹⁶ for use in EMSAs. Protein was preincubated with inhibitor or DMSO and then incubated with 0.5 μg poly d(I-C) for 15 min at 4° C. in 40 mM KCl, 15 mM HEPES pH 7.9, 1 mM EDTA, 0.5 mM DTT, 5% glycerol. Finally, radiolabelled double-stranded DNA ([…]—SEQ ID NO: 5- and its complement) were added for a 30-min incubation at 30° C. Results were visualized using a PhosphorImager and quantified using ImageQuant software.
(In general: Mobility shift assays separate free from complexed probe on a gel.)

B1: LSF EMSA site (dsDNA)
DNA 1: TGGCTGGTTATGGCTGGTCAGACTAG
DNA 2: CTAGTCTGACCAGCCATAACCAGCCA
In the case of B1, the binding result was “binds”.

The values above are taken from US20180051033, “INHIBITORS OF LATE SV40 FACTOR (LSF) AS CANCER CHEMOTHERAPEUTICS” (TRUSTEES OF BOSTON UNIVERSITY, published 2018).
